One substance from US20190040138A1 can be followed below.

The target of this experiment is PD-1 antigen stably expressed on the surface of BB007 cells (UniProt Q15116). Kind of experiment: flow cytometry on BB007 cells; control, printed under the column 0 nM. For orientation: A flow cytometer gives signals particle by particle.
Sequence of PD-1 antigen stably expressed on the surface of BB007 cells (Q15116 25-288 limits assumed): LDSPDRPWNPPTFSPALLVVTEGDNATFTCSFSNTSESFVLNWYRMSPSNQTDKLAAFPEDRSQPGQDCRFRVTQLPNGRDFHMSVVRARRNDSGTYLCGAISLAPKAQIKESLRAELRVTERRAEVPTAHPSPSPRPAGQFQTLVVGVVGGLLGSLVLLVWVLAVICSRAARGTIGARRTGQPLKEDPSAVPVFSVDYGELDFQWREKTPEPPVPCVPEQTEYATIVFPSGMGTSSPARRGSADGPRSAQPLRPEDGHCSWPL

For hIgG (antibody), the fluorescence intensity stood at 7.4.
